This is an account of results in article doi:10.1101/2020.12.10.419135.

A word on the Kd: it is the equilibrium constant for the complex coming apart.

The target of this assay is Recombinant human glutamine synthetase (GS) (human) (UniProt P15104). The assay can be described thus: MST.
Chain of UniProt P15104 (P15104 whole entry): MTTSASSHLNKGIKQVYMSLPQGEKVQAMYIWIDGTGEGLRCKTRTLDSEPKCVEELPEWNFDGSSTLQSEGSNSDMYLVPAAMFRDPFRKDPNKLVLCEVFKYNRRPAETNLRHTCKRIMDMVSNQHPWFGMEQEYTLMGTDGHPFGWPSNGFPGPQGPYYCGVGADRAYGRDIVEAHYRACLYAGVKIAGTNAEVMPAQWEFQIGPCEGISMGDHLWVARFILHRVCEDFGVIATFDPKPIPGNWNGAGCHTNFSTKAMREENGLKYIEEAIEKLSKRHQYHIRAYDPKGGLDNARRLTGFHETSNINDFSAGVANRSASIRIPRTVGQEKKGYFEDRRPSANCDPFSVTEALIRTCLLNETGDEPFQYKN

Turning to contryphan-Bt (peptide), the Kd came out at 74 µM.
